One experiment deals with β-cardiac myosin (Sus scrofa, UniProt P79293). Description: Steady-state basal and actin-activated Mg2+-ATPase (NADH-coupled assay). The format is biochemical, Porcine. The note with it: β-cardiac myosin S1, dose-dependence. The protocol: Rabbit fast skeletal muscle heavy meromyosin (HMM) was prepared as described by [Margossian and Lowey (1982)]. Porcine β-cardiac myosin was prepared essentially as described by [Pant et al. (2009)] and [Jacques et al. (2008)] and further purified by gel filtration. S1 and HMM fragments were produced by proteolytic digestion of the full-length proteins with 0.05 mg/ml papain (10 min, 25°C) for S1 and with 0.1 mg/ml TLCK-treated α-chymotrypsin (15 min, 25°C) for HMM. Reactions were stopped with specific protease inhibitors for papain (10 µM E−64) and chymotrypsin (10 µM chymostatin, 1 mM benzamidine). Proteolytic fragments were further purified by actin-coprecipitation. Pellets were washed twice and myosin was extracted from the pellets using ATP containing buffer. Gel filtration was used to further increase purity of myosin S1 and HMM fragments. His-tagged motor domain constructs of Dd myosin-2, Dd myosin-1B, Dd myosin-1C, Dd myosin-1D, Dd myosin-1E, Dd myosin-5b fused to two Dd α-actinin repeats substituting the light-chain binding domains ([Anson et al., 1996]) were expressed in Dd AX3-ORF + cells and purified by Ni^2+-chelate affinity chromatography ([Manstein and Hunt, 1995]).
Sequence of β-cardiac myosin (P79293 1-810 limits assumed): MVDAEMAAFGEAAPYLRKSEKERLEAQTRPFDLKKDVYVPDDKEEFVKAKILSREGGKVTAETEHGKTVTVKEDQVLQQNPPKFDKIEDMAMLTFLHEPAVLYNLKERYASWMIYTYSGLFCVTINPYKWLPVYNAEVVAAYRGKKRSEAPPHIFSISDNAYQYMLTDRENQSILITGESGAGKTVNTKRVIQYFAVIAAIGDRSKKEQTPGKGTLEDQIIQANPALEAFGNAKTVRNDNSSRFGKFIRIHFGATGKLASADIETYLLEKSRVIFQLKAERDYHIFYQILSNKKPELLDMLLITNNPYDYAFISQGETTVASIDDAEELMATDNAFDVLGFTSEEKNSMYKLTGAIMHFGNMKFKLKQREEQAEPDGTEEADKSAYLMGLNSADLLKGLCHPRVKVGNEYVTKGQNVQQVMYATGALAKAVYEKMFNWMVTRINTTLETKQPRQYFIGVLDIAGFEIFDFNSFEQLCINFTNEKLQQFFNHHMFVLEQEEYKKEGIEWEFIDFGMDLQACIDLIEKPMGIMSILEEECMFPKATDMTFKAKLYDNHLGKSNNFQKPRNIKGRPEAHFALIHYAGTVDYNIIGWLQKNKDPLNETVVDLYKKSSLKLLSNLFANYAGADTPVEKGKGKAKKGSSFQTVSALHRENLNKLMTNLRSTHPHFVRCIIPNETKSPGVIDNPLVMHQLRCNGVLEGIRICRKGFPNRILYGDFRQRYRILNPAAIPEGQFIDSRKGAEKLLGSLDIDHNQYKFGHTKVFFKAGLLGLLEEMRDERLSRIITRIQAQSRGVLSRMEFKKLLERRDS
Basal and actin-activated Mg^2+-ATPase activities were measured using the NADH-coupled assay described previously ([Furch et al., 1998]) adapted for higher throughput screens for a temperature controlled plate reader (Multiscan FC, Thermo Scientific, Waltham, MA) at 25°C. […] Control measurements were carried out in the absence of drug, as well as in the presence of according concentrations of the non-binding (−)-enantiomer EMD 57439 to account for possible absorption effects. […] Data points are mean values from 3 to 5 independent experiments. Error bars indicate standard deviations.

The target in a further experiment is T1, β-cardiac myosin S1 (Sus scrofa, UniProt P79293).
T1 construct: S1 and HMM fragments were produced by proteolytic digestion of the full-length proteins with 0.05 mg/ml papain; from tissue; host or cells: porcine cardiac muscle
T1 sequence (P79293 1-843 limits assumed): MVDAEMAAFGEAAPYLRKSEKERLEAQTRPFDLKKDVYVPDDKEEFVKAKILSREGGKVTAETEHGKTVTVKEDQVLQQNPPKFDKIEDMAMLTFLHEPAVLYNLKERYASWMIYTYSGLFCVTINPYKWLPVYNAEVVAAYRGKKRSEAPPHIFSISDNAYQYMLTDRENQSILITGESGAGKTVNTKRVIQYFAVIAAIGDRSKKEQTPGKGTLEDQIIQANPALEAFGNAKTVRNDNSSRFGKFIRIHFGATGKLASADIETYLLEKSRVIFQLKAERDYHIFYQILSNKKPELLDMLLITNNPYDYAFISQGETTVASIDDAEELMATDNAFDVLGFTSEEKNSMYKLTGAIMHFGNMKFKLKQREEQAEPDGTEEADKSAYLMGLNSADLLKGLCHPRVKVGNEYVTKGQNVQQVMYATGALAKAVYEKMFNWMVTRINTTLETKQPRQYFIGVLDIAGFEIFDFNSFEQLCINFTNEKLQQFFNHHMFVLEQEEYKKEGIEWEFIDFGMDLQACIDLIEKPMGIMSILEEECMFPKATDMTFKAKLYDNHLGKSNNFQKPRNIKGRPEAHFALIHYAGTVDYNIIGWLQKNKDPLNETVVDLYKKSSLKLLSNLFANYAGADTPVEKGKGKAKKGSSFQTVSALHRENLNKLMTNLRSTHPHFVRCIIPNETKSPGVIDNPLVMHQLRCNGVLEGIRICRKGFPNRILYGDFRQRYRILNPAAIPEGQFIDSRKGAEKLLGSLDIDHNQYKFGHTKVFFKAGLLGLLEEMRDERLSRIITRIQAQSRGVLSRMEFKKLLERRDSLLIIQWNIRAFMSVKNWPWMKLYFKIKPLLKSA
Briefly: Microscale thermophoresis direct binding. Also on record: species or system Porcine. From the text:
Proteolytic fragments were further purified by actin-coprecipitation.

The next experiment concerns phosphodiesterase III. Set-up: method as in Gambassi et al., 1993. The note with it: ref Gambassi et al., 1993; cited from earlier work.
The next experiment has as its target F-actin (UniProt P68135).

Entries after “also recorded” stand apart in the source; their conditions may differ.

`COc1ccc(C(=O)N2CCCc3cc(C4=NNC(=O)SC4C)ccc32)cc1OC` (stereo not shown) [EMD 57439]: on β-cardiac myosin, the “Activation of the actin-activated ATPase (in words)” value is on record as “Neither binding nor activation was observed; also recorded: no activation”. Also, the “Binding (in words)” value on β-cardiac myosin S1 is “Neither binding nor activation was observed”. Further, in the experiment on phosphodiesterase III, the “Phosphodiesterase III inhibition” value was “potent phosphodiesterase III inhibitor”.

With “β-cardiac myosin (from UniProt P79293 1-1935) (natural protein)”, in the experiment with F-actin, the K M(Actin): F-actin concentration for half-maximal activation of the steady-state ATPase, control without EMD 57033 stood at 36.8 µM; the K M(Actin): F-actin concentration for half-maximal activation of the steady-state ATPase, with 25 µM EMD 57033 was 3.6 µM; the kcat/K M(Actin) of the actin-activated ATPase, calculated ratio, control without EMD 57033 was 3260 M⁻¹ s⁻¹; the kcat/K M(Actin) of the actin-activated ATPase, calculated ratio, with 25 µM EMD 57033 was 0.0528 µM^v1 s^−1.
